Legend:
Format in all cases: biochemical, Thauera aromatica
[1] = substrate: NC(=O)c1ccc[n+]([C@@H]2C[C@H](COP(=O)(O)OP(=O)(O)OC[C@H]3O[C@@H](n4cnc5c(N)ncnc54)[C@H](O)[C@@H]3O)[C@@H](O)[C@H]2O)c1; assay: purified protein; settings: oxidation, co-substrate not given, standard assay pH 9.0, 40 °C, pH 9.0, varied: cofactor
[2] = substrate: NC(=O)C1=CN([C@@H]2O[C@H](COP(=O)(O)OP(=O)(O)OC[C@H]3O[C@@H](n4cnc5c(N)ncnc54)[C@H](O)[C@@H]3O)[C@@H](O)[C@H]2O)C=CC1; assay: purified protein; settings: reduction, co-substrate not given, standard assay pH 6.5, 40 °C, pH 6.5, varied: cofactor
[3] = substrate: NC(=O)c1ccc[n+]([C@@H]2O[C@H](COP(=O)(O)OP(=O)(O)OC[C@H]3O[C@@H](n4cnc5c(N)ncnc54)[C@H](O)[C@@H]3O)[C@@H](O)[C@H]2O)c1; assay: purified protein; settings: oxidation, co-substrate not given, standard assay pH 9.0, 40 °C, pH 9.0, varied: cofactor
[4] = substrate: CC1=CC(O)CCC1; assay: purified protein; settings: oxidation, standard assay: NAD+ 1 mmol L^−1, 100 mmol L^−1 HEPES pH 9.0, 40 °C, pH 9.0
[5] = substrate: O=C1CCCCC1Br; assay: Michaelis-Menten kinetics, reduction; photometric standard assay or FDH-coupled biotransformation; settings: NADH 0.25 mmol L^−1, potassium phosphate pH 6.5, room temperature, 3 % (v/v) DMSO, racemic substrate
Text: (§1) Michaelis-Menten kinetics, reduction; photometric standard assay or FDH-coupled biotransformation on ThaADH

[6] = substrate: O=C1CCCCC1Cl; assay: as above; settings: NADH 0.25 mmol L^−1, potassium phosphate pH 6.5, room temperature, 1 % (v/v) DMSO, racemic substrate
Text: as §1

[7] = substrate: O=C1CCCCC1=O; assay: as above; settings: NADH 0.25 mmol L^−1, 100 mmol L^−1 potassium phosphate pH 6.5, room temperature, solubility limit reached
Text: as §1

B1: ThaADH (Thauera aromatica) (protein)
chain: MSSNPHRWMMTSPGAPMVRAEFEIGELSADQVVVAVAGCGVCHTDLGYYYDSVRTNHALPLALGHEISGRVVQAGANAAQWLGRAVIVPAVMPCGTCELCTSGHGTICRDQVMPGNDIQGGFASHVVVPARGLCPVDEARLAAAGLQLADVSVVADAVTTPYQAVLQAGVEPGDVAVVIGVGGVGGYAVQIANAFGASVVAIDVDPAKLEMMSKHGAALTLNAREISGRDLKKAIEAHAKANGLRLTRWKIFECSGTGAGQTSAYGLLTHGATLAVVGFTMDKVEVRLSNLMAFHARALGNWGCLPEYYPAALDLVLDKKIDLASFIERHPLDQIGEVFAAAHAHKLTRRAILTP
notes: full-length WT, recombinant in E. coli BL21(DE3), pET22b; C-terminal Strep-tag for all kinetics, N-terminal His-tag for crystals; about 40 kDa monomer, dimer in solution (89 kDa by SEC; tetramer and higher in blue native PAGE), two zinc per monomer
Km [1]: 0.7 ± 0.1 mM
Vmax [1]: 0.9 µmol/min/mg
kcat [1]: 0.66 ± 0.04 s⁻¹
kcat/Km [1]: 940 ± 190 M⁻¹ s⁻¹
Km [2]: 0.07 ± 0.02 mM
Vmax [2]: 9.1 µmol/min/mg
kcat [2]: 6.63 ± 0.74 s⁻¹
kcat/Km [2]: 94700 ± 37600 M⁻¹ s⁻¹
Km [3]: 1.0 ± 0.2 mM
Vmax [3]: 2.2 µmol/min/mg
kcat [3]: 1.63 ± 0.1 s⁻¹
kcat/Km [3]: 1630 ± 430 M⁻¹ s⁻¹
Km [4]: 21.6 ± 1.9 mM
Vmax [4]: 2.4 µmol/min/mg
kcat [4]: 1.77 ± 0.05 s⁻¹
kcat/Km [4]: 80 ± 10 M⁻¹ s⁻¹
Km [5]: 24.1 ± 6.8 mM
Vmax [5]: 6.3 µmol/min/mg
kcat [5]: 4.62 ± 0.47 s⁻¹
kcat/Km [5]: 190 ± 70 M⁻¹ s⁻¹
Km [6]: 33.1 ± 10.4 mM
Vmax [6]: 14.9 µmol/min/mg
kcat [6]: 10.9 ± 1.38 s⁻¹
kcat/Km [6]: 330 ± 150 M⁻¹ s⁻¹
Km [7]: 68.1 ± 33.8 mM
Vmax [7]: 53.3 µmol/min/mg
kcat [7]: 39.1 ± 10.1 s⁻¹
kcat/Km [7]: 570 ± 430 M⁻¹ s⁻¹
